Assay results published in the nanobody polyreactivity screen of Harvey et al. (2022).

Test: yeast display, Sf9 membrane polyspecificity reagent, FACS + sequencing; frameworks hold sequencing errors
Outline: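 Galactose-induced (36–48 hours) yeast carrying a synthetic nanobody display library were exposed to 10% biotinylated, detergent-solubilized Sf9 membrane reagent at 4 °C for 1 hour. FACS followed streptavidin microbead enrichment, using low and high (top ~1%) gates for expression (anti-HA) and reagent binding (streptavidin). Colony PCR, MiSeq 2 × 250 sequencing and CDR-length filtering followed. Labels for polyreactivity reflect the gate of origin.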

| Sequence | polyreactivity (PSR sort gate) |
| --- | --- |
| QVQLEESGGGLVQEGGSLRLSCAASGSIFGGYVMGWYRQAPGKERELVAVITKRGGSTYYADSVKGRFTISRDNAKNTVYFQMNSLKPEDTAVYYCNKDGYYASVLGYDYWGQGTQVTVSS | high polyreactivity |
| QVQLVESGGGLVQAGGSLRLSCAASGSIIYNYAMGWYRQAPGKERELVAAINRSGGITYYADSVKGRFTISRDNAKNPVYLQMNSLKPEDTAVYYCAADRSFGHHYWYTGKRYDYWGQGTQVTVST | low polyreactivity |
| QVHLVESGGPLVQAGGSLRLSCAASGYTFWGNAMGWYRQAPGKERELVAGITGSGVSTYYADSVKGRFTISRDNAKNTVYLQMNNLKPEDTAVYYCARRVVFAHKYATSYFLLEYGYWGQGTQVSVSS | low polyreactivity |
| QVHLVESGGALVQAGGSLRLSCAASAYTFSYYAMGWYRQAPGKEMELVAAITSTGSTYYADSVKGRFTISRDNAKNTVYLQMNSLKPEDTAVYYCNVDDATVGPVDYWGQGTQVTVSS | low polyreactivity |
| QVQLVESGGGLVQAGGSLRLSCAASGSTFGVYGMGWYRQAPGKERELVASITSDGNTNYADSVKGRFTISRDNAKNTVYLQMNSLKPEDTAVYYCNTVGIQALYDYWGQGTQVTVSS | low polyreactivity |
| QVQLVESGGGLVQAGGSLRLSCAASGGIFPLNAMGWYRQAPGKERELVAAISRRGGSTYYADSVKGRFTISRDNAKNTVYLQMNSLKPEDTAVYYCAAVTVRKFYKGINYWYEYWGQGTQVTVSS | high polyreactivity |
| QVQLVESGGGLVQAGGSLRLSCAASGRTFSKYAMGWYRQAPGKERELVAAISSGGSTNYADSVKGRFTISRDNAKNTVYLQMISLKPEDTAVYYFARTTNWRHSYAYYYLHGHDYWGQGTQVTVSS | high polyreactivity |
| QVQLVESGGGLVQAGGSLRLSCAASGNTFKRYAMGRYRQAPGKERELVAAITWRGARTYYADSVKGRLTISRDNAKNTFYLQMNSLKPEDTAVYYCAADGYSGSGPYDYWGQGTQVTVSS | high polyreactivity |
| QVQLVESGGGLVQAGGSLRLSCAASGRTFSVNAMGWYRQAPGKEREFVAAISKSGGSTYYADSVKGRFTISRDNAKNTVYLQMNSLKPEDTAVYYCAADSNSVYPFDYWGQGTQVTVSS | high polyreactivity |
| QVKLVESGGGLVQAGGSLRLSCAASGRTFPYYAKGWYRQAPGKERELVAAISWSGGSTYYADSVKGRFTISRDNAKNTVYLQMNSLKPEDTAVYYCNTVFSPWPDFRRFGYWGQGTQVTVSS | high polyreactivity |
| QVQLVESGGGLVQAGGSLRLSCAASGNILSPYTMGWYRQAPGKERELVAGISRSGGTTYYADSVKGRFTLSRDNAKTTVYLQINSLKTEDTAVYYCASGLIYGYSGYDSWGQGTQVTVSS | low polyreactivity |
| QVQLVESGVGLVQAGGSLRLSCAASGGTFRPYAMGWYRHAPGKESELVAAISYTGSTYYADSVKGRFTISRDNAKNTVYLQMNSLKPVDTAVYYCAKDLWYPPRFDYWGQGTQVTVSS | low polyreactivity |
| QVQLVESGGVLVQARGILRLICAASGSTFSFNDMGWYRQAPGKERELVAAISRGDNTYYADSVKGRFTISRDNAKNTVYLQMNSLKPDDTSVYYCAADYTYGPPYGYNYWGQGTQVTVSS | low polyreactivity |
| QVQLVESGGGLVQAGGSLRLSCAASGRIFTYNAMGGYRQAPGKESEFVAAISSGGSTTYADSVKGRFTISRDNAKNTVYLQMISLKPEDTAVYYCAARGWRFAIIQYEYWGQGTQVTVSS | low polyreactivity |
| QVQLVESGGGLVQAGGSLRLSCAASGSTFEDNAMGWYRQAPGKERELVAVITWTGGSTYYADSVKGRFTISRDNAKNTVYLQMNSLKPEDTAGYYCAADGVVPGRFFWPAHAYDYCGQGTQVTVSS | low polyreactivity |
| QVQLVESGGGLVQAGGSLRLSCAASGIIFPAYAMGWYRQEPGKDRELVAAISKRGGSTYYADSVKGRFTISRDNAKNTVYLQMNSLKPEDTAVYYCNVLLTQGATVGEYGYWGQGTQVTVSS | high polyreactivity |

| Sequence | polyreactivity (PSR sort gate) |
| --- | --- |
| QVQLVESGGGLVQAGGSLRLSCAASGSIFAYYALGWYRQAPGKERELVASIDWSGDLYVRDSVKGRFTISRDNAKNTVYFLMNSLKPEDTAVYYCAKDVSFQYGTGYDYWGQGNQVTVSS | low polyreactivity |
| QVQLVESGGGLVQAGGTLRLSCAASGRTFTYYAMGWYRQAPGKERELVATIRSGGTTNYADSVKGRFTISRDNAKNTVYLQMNSLKPEDTAEYYCARVLSYVWYYRDPYQYPDYDFWGQGTQVTGSS | low polyreactivity |
| QVQLVESGGGLVQAGGSLRLSCAASGRIFSTYVMGWYRQAPGKERELVAAIRNNGGSTYYADSVKGRFTISRDNAKNTVYLQMNSLKPEDTAVYFCAKKSFFTGRWWYDYWGQGTQVTVSS | high polyreactivity |
| QVQLVESGGGLVQAGGSLRLSCAASGFTLADNPMGWYRQAPGKERELVAAITSGASTYYADSVKGRFTISRDNAKNTVYLQMNTLKPEDTAVYYCAALYYWRSGYDAWGQGTQVTVSS | low polyreactivity |
| QVQLVESGGGLVQAGGSLRLSCAASGSIFAYNAMGRYRPAPGKERELGAAITSDDSTNYADSVKGRFTISRDNAKNSVYLQMNSLKPEDTAVYYCAAYYYYTYIIGYDYCGQGTQVTVSS | low polyreactivity |
| QVQLVESGGGVVQAGGSLRLSCAASGSTFGWYALGWYRQAPGKERELVAAITSGGSTKYADSVKGRFTISRDNAKNTVVLQMNSLKTEDTAVYYCDTVRGYYSPVLVIGYYWGQGTQVTVSS | high polyreactivity |
| QVQLVESGGGLVQAGGSLRLSCAASGSIFVLYAMGWYRQAPGKERELVAAITTGGGTNYADSVKGRFTISRDNAKNTVYLQMNSLKPEDTAVYYCNADAYGTPEFTSYAVRYDYWGQGTQVTVSS | low polyreactivity |
| QVQLVESGGGLVQAGGSLRLSCAASGSTFGWYTMGWYRQAPGKERELVAAITSRGTRTSYADSVKGRFTISRDYAKNTVYLQMNSLKPEDTAVYYCAARVFRGLGEYYWGQGTQVTVSS | high polyreactivity |
| QVQLVETAGGLVQAGGSLRLSCAASGSTFYTNAMGWYRQAPGKERELVAAISGSGGSTYYADSVKGRFTISRDNAKNTVYLQMISLKPEDTAVYNCAARSRYYDTRFDYWGQGTQVTVSS | low polyreactivity |
| QVQLVESGGGLVQAGGSLRLSCASSGLTFYPYAMGWYRQAPGKERELVAAISKSGGRTSYADSVKGRFTISRDNAKNTVYLQMNSLKPEDTAVYYCNARSGTFGYSTYGYWGQGTQETVSS | high polyreactivity |
| QVQLVESGGGLDLAGGSLRLSCAASGSTFWRYAMGWYCQAPGKERELVAAISYTGTSTYSADSVKGRFTISRDNAKNTVYLQMNSLKPEDTAVYYCAAVFVGLVTGYDYSWGQGTQVNVSS | low polyreactivity |
| QVQLVESGGGLVQAGGSLRLSCAASGIIFAYYAMGWYRQAPGKERELVAAISRSGGITYYADSVKGRFTISRDNAKNTVYLQMNSLKPEDTAAYYCARYSCRPYDYWGQGTQVTVSS | high polyreactivity |
| QVQLVESWGGLVHAGGSLPLSCADSGITFFYYAMGWYRQAPGKEREFVAAISTSGGRTYYADSVKGRFTISRDNAKNTVYLQMNSLKPEDTAVYYCAARSRVPPAGPRYDYWGQGTQVTVSS | high polyreactivity |
| QVQLVESGGGLVQAGGSLRISCAASGRIFSGYAMGWYRQAPGKERELVAAITSGGSTNYADSVKGRFTISRDNAKNTVYLQMNSLKPEDTAVYYCAADSREVSTTAYYYWGQGTQVTVSS | low polyreactivity |
| QVQLVESGGGLVQAGGSLRLSCAASGGTFAGYAMGWYRQAPGKERELVAAITYRSSTTYYADSVKGRFTISRDNANNTVYLQMNSLKPEDTAVYYCAARTRGTGRNRDYWGQGTQVTVSS | high polyreactivity |
